Patent publication US20220008548A1

Target: IL-4R (UniProt P24394)
Test: cell-based or functional assay

attenuation of IL-4R activity beyond the control constructs: > 10%
B1: anti-IL-4R:anti-CD63 conjugate (streptavidin-conjugated anti-IL-4R antibody combined 1:1 with biotinylated anti-CD63 antibody MEM-259) (protein, part only; not given: anti-CD63 antibody MEM-259, part only)
VH: EVQLVESGGGVVQPGRSLRLSCVASGFTFSDYGMHWVRQAPGKGLEWVAVIWYDGSIKYFRDSVKGRFTISRDNSKNTLYLQMNSLRVEDTAHYYCAKESSSWYFYHGLDVWGQGTMVTVSS
VL: EIVMTQSPLSLPVSPGEPASISCRSNQSLLHSNGNNYLAWYLQKPGQSPHLLIYLGSNRASGVPDRFSGSGSGTDFTLKISRVEAGDVGTYFCMQSLQAPPFTFGPGTKVEIKR
modifications: antibody conjugated to streptavidin
